The results in this text go back to article PMC12820725, “Ribosomal protein control of hematopoietic stem cell transformation through regulation of metabolism”.

Where two headings read alike, the source gives them in different places.

Series [1] deals with GST-Rpl22 (UniProt P67984 1-128). Nature of the series: EMSA; 5 mM MgCl2, E. coli tRNA competitor; 37.5 mM HEPES pH 7.9, 75 mM NaCl, 5 mM MgCl2, 0.1 mg/ml BSA, 8% glycerol, 1 ug E. coli tRNA, 5 nM 32P-RNA; temperature not stated. Particulars: protein: recombinant; tags: GST; label: 5'-32P.
The target is the same in series [2]. The description is as above.

B1: EBER2 (ssRNA)
RNA: GCUCAGUGCGGUGCUACCGACCCGAGGUCAAG
For B1, the binding result in series [1] is listed as “no binding”.

B2: Alox12 BS2 (structured_RNA)
RNA: AUUUCCUCACCAUGUGUGUUUUCACAUGCACU
Take B2: the binding result in series [2] is reported as “binds”.

B3: EBER1 (structured_RNA)
RNA: GGUCCGUCCCGGGUACAAGUCCCGGGUGGUGA
Consider B3, for which the binding result in series [1] was “binds”.

B4: Alox12 BS1 (structured_RNA)
RNA: AUCCUGCUGGAUGGAAUUCCAGCUAAUGUGAU
Consider B4, for which, in series [2], the binding result is on record as “no binding”.

B5: Alox12 NBS (ssRNA)
RNA: ACCAGAGUGAUGAUAUUGUGAGGGGAGACCCA
On to B5, for which, in series [2], the binding result is given as “no binding”.
